How the values were obtained:
Test in all cases: cell-based or functional assay
[1] = biological target: T1, neuraminidase of influenza A/Vietnam/1203/04 (H5N1, clade 1) on live virus (influenza A/Vietnam/1203/04 (H5N1), UniProt Q6DPL2 1-449)
[2] = biological target: NA (neuraminidase) used in the NA activity inhibition experiments of Example 9
[3] = biological target: T1, neuraminidase of influenza …; remark: listed apart in the source

T1 sequence (Q6DPL2 whole entry): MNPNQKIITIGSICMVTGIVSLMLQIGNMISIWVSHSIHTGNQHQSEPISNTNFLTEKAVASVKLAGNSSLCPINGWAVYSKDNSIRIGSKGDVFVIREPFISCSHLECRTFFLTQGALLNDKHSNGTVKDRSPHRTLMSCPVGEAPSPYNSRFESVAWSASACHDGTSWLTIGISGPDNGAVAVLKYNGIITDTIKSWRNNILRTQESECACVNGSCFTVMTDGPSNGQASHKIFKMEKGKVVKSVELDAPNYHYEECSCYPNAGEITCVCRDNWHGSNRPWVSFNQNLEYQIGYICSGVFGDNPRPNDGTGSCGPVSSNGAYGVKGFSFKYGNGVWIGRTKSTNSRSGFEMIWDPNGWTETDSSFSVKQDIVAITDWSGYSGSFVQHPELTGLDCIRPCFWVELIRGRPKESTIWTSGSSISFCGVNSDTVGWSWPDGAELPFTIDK

B1: 2B9 anti-N1 neuraminidase monoclonal antibody (antibody, V domains shown)
VH: QVQLQQSGAELVRPGTSVKMSCKAAGYTFTNYWIGWVKQRPGHGLEWIGDIYPENDFSNYNEKFKDKATLTADTSSRTAYMQLSSLTSEDSAIYYCVRANEGWYLDVWGTGTTVSVSS
VL: DIQMTQSPASLSESVGETVTITCRASENIYSYLAWYQQKQGKSPQLLVYFAKTLAEGVPSTFSGSGSGTLFSLKINSLQPEDFGNYYCQHHYGTPYTFGGGTKLEIKR
With B1 the “IC50 of 2B9 against various influenza strains (NA inhibition)” value [1] was ≤ 1 µg/mL, the “IC50, inhibition of NA activity” value [2] was 0.82 µg/mL and the “NA assay IC50 (Antibody IC50)” value [3] was < 1 µg/mL.

Reference: US8734803 (IBIO, dated 2014)
